In patent US20140058068A1 (UNIVERSITY OF MIAMI, published 2014):
One block for each molecule: values may come before it. Square brackets hold non-standard residues; d marks the D form. Ends that are not written are not given here. * marks the point of attachment. Desaminotyrosyl = O=C(CCc1ccc(O)cc1)*; NMeY = CN[C@@H](Cc1ccc(O)cc1)C(=O)O; hArg = N=C(N)NCCCC[C@H](N)C(=O)O; Agmatine = N=C(N)NCCCCN*; Nle = CCCC[C@H](N)C(=O)O; Orn = NCCC[C@H](N)C(=O)O; Abu = CC[C@H](N)C(=O)O; GABA = NCCCC(=O)O

Legend:
[1] = biological target: GHRH receptor of human pituitary membrane homogenates (human) (UniProt Q02643); experiment: radioligand competition, 125I-JV-1-42 (~0.2 nM) as competitor, human pituitary membrane homogenates
[2] = biological target: GHRH receptor of human pituitary membrane homogenates (human) (UniProt Q02643); experiment: as above; remark: listed apart in the source
[3] = biological target: GHRH receptor of human pituitary membrane homogenates (human) (UniProt Q02643); experiment: radioligand competition, [His1,125I-Tyr10,Nle27]hGHRH(1-32)NH2 (0.2 nM) as competitor, human pituitary membrane homogenates
[4] = biological target: T1, GHRH receptor of human pituitary membrane homogenates (human, UniProt Q02643 23-423); experiment: as above
T1 construct: whole, on cells; Native receptor in pituitary membrane homogenates, not intact cells; also called hGH-RH receptor
T1 sequence (looked up): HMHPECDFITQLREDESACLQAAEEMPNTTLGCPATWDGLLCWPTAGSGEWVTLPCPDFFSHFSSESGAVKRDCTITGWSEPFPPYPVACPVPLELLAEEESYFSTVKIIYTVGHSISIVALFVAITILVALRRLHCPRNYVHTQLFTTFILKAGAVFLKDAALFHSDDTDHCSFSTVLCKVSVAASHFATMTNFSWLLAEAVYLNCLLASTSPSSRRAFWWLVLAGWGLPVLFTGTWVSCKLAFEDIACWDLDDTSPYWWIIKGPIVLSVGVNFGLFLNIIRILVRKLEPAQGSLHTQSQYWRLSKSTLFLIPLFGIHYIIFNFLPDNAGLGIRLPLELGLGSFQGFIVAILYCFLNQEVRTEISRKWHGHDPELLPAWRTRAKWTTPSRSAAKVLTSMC
Text: Normal human pituitaries were purchased from the National Hormone and Peptide Program (A. F. Parlow, Los Angeles, County Harbor—UCLA Medical Center, Torrance, Calif.).

[5] = biological target: T1, GHRH receptor of human pituitary …; experiment: radioligand competition, 125I-JV-1-42 (~0.2 nM) as competitor, human pituitary membrane homogenates
Method: (§1) Normal human pituitaries were purchased from the National Hormone and Peptide Program (A. F. Parlow, Los Angeles, County Harbor-UCLA Medical Center, Torrance, Calif.).
The final binding affinities were expressed as IC₅₀ values and were calculated by using the LIGAND PC computerized curve-fitting program of Munson and Rodbard as modified by McPherson.

[6] = biological target: T1, GHRH receptor of human pituitary …; experiment: as above; remark: listed apart in the source
Text: as §1

Molecule: [Dat^1, D-Ala^2, Fpa5^6, Orn^12, Abu^15, Orn^21, Nle^27, Gab^30]hGH-RH(1-30)NH2 (from UniProt P01286 32-61) (peptide)
IC50 [1]: 0.07 nM
Relative affinity (Binding potency) vs GHRH (fold, GHRH(1-29) = 1) [1]: 58
Relative affinity (Binding potency) vs JI-38 (fold, JI-38 = 1) [1]: 24.4
IC50 [2]: 0.33 nM
Relative affinity (Binding potency) vs JI-38 (fold, JI-38 = 1) [2]: 13.2

Molecule: [Dat^1, D-Ala^2, Gln^8, Orn^12, Abu^15, Orn^21, Nle^27, Asp^28, Agm^29]hGH-RH(1-29) (from UniProt P01286 32-60) (peptide)
IC50 [1]: 0.04 nM
Relative affinity (Binding potency) vs GHRH (fold, GHRH(1-29) = 1) [1]: 102
Relative affinity (Binding potency) vs JI-38 (fold, JI-38 = 1) [1]: 42.7
IC50 [2]: 0.52 nM
Relative affinity (Binding potency) vs JI-38 (fold, JI-38 = 1) [2]: 8.37

B2: [Dat^1, D-Ala^2, Ala^8, Orn^12, Abu^15, Orn^21, Nle^27, Asp^28, Har^30]hGH-RH(1-30)NH2 (peptide)
chain: [Desaminotyrosyl][dA]DAIFTASYR[Orn]VL[Abu]QLSAR[Orn]LLQDI[Nle]DR[hArg]-NH2
SMILES: CCCC[C@H](NC(=O)[C@@H](NC(=O)[C@H](CC(=O)O)NC(=O)[C@H](CCC(N)=O)NC(=O)[C@H](CC(C)C)NC(=O)[C@H](CC(C)C)NC(=O)[C@H](CCCN)NC(=O)[C@H](CCCNC(=N)N)NC(=O)[C@H](C)NC(=O)[C@H](CO)NC(=O)[C@H](CC(C)C)NC(=O)[C@H](CCC(N)=O)NC(=O)[C@H](CC)NC(=O)[C@H](CC(C)C)NC(=O)[C@@H](NC(=O)[C@H](CCCN)NC(=O)[C@H](CCCNC(=N)N)NC(=O)[C@H](Cc1ccc(O)cc1)NC(=O)[C@H](CO)NC(=O)[C@H](C)NC(=O)[C@@H](NC(=O)[C@H](Cc1ccccc1)NC(=O)[C@@H](NC(=O)[C@H](C)NC(=O)[C@H](CC(=O)O)NC(=O)[C@@H](C)NC(=O)CCc1ccc(O)cc1)[C@@H](C)CC)[C@@H](C)O)C(C)C)[C@@H](C)CC)C(=O)N[C@@H](CC(=O)O)C(=O)N[C@@H](CCCNC(=N)N)C(=O)N[C@@H](CCCCNC(=N)N)C(N)=O
IC50 [4]: 0.04 nM
Relative affinity (Binding potency) vs GHRH [4]: 148 fold, GHRH(1-29) = 1
Relative affinity (Binding potency) vs JI-38 [4]: 48.7 fold, JI-38 = 1

The next lines start with the values.

IC50 [3]: 0.08 nM
Relative affinity (Binding potency) vs GHRH (fold, GHRH(1-29) = 1) [3]: 74
Relative affinity (Binding potency) vs JI-38 (fold, JI-38 = 1) [3]: 24.4
Molecule: [Dat^1, D-Ala^2, Gln^8, Orn^12, Abu^15, Orn^21, Nle^27, Asp^28, Amc^30]hGH-RH(1-30)NH2 (from UniProt P01286 32-61) (peptide)

IC50 [4]: 0.07 nM
Relative affinity (Binding potency) vs GHRH [4]: 84.5 fold, GHRH(1-29) = 1
Relative affinity (Binding potency) vs JI-38 [4]: 27.8 fold, JI-38 = 1
B1: [Dat^1, D-Ala^2, Thr^8, Orn^12, Abu^15, Orn^21, Nle^27, Asp^28, Har^30]hGH-RH(1-30)NH2 (peptide)
chain: [Desaminotyrosyl][dA]DAIFTTSYR[Orn]VL[Abu]QLSAR[Orn]LLQDI[Nle]DR[hArg]-NH2
SMILES: CCCC[C@H](NC(=O)[C@@H](NC(=O)[C@H](CC(=O)O)NC(=O)[C@H](CCC(N)=O)NC(=O)[C@H](CC(C)C)NC(=O)[C@H](CC(C)C)NC(=O)[C@H](CCCN)NC(=O)[C@H](CCCNC(=N)N)NC(=O)[C@H](C)NC(=O)[C@H](CO)NC(=O)[C@H](CC(C)C)NC(=O)[C@H](CCC(N)=O)NC(=O)[C@H](CC)NC(=O)[C@H](CC(C)C)NC(=O)[C@@H](NC(=O)[C@H](CCCN)NC(=O)[C@H](CCCNC(=N)N)NC(=O)[C@H](Cc1ccc(O)cc1)NC(=O)[C@H](CO)NC(=O)[C@@H](NC(=O)[C@@H](NC(=O)[C@H](Cc1ccccc1)NC(=O)[C@@H](NC(=O)[C@H](C)NC(=O)[C@H](CC(=O)O)NC(=O)[C@@H](C)NC(=O)CCc1ccc(O)cc1)[C@@H](C)CC)[C@@H](C)O)[C@@H](C)O)C(C)C)[C@@H](C)CC)C(=O)N[C@@H](CC(=O)O)C(=O)N[C@@H](CCCNC(=N)N)C(=O)N[C@@H](CCCCNC(=N)N)C(N)=O

IC50 [5]: 0.05 nM
Relative affinity (Binding potency) vs GHRH [5]: 81.2 fold, GHRH(1-29) = 1
Relative affinity (Binding potency) vs JI-38 [5]: 34.2 fold, JI-38 = 1
IC50 [6]: 0.86 nM
Relative affinity (Binding potency) vs JI-38 [6]: 5.06 fold, JI-38 = 1
B3: [Dat^1, D-Ala^2, Orn^12, Abu^15, Orn^21, Nle^27, Gln-Gab^30]hGH-RH(1-30)NH2 (peptide)
peptide: [Desaminotyrosyl][dA]DAIFTNSYR[Orn]VL[Abu]QLSAR[Orn]LLQDI[Nle]SRQ[GABA]-NH2
SMILES: CCCC[C@H](NC(=O)[C@@H](NC(=O)[C@H](CC(=O)O)NC(=O)[C@H](CCC(N)=O)NC(=O)[C@H](CC(C)C)NC(=O)[C@H](CC(C)C)NC(=O)[C@H](CCCN)NC(=O)[C@H](CCCNC(=N)N)NC(=O)[C@H](C)NC(=O)[C@H](CO)NC(=O)[C@H](CC(C)C)NC(=O)[C@H](CCC(N)=O)NC(=O)[C@H](CC)NC(=O)[C@H](CC(C)C)NC(=O)[C@@H](NC(=O)[C@H](CCCN)NC(=O)[C@H](CCCNC(=N)N)NC(=O)[C@H](Cc1ccc(O)cc1)NC(=O)[C@H](CO)NC(=O)[C@H](CC(N)=O)NC(=O)[C@@H](NC(=O)[C@H](Cc1ccccc1)NC(=O)[C@@H](NC(=O)[C@H](C)NC(=O)[C@H](CC(=O)O)NC(=O)[C@@H](C)NC(=O)CCc1ccc(O)cc1)[C@@H](C)CC)[C@@H](C)O)C(C)C)[C@@H](C)CC)C(=O)N[C@@H](CO)C(=O)N[C@@H](CCCNC(=N)N)C(=O)N[C@@H](CCC(N)=O)C(=O)NCCCC(N)=O
notes: T0009 prints Asn^s for Asn^8; also called P29702

IC50 [5]: 0.01 nM
Relative affinity (Binding potency) vs GHRH [5]: 406 fold, GHRH(1-29) = 1
Relative affinity (Binding potency) vs JI-38 [5]: 171 fold, JI-38 = 1
IC50 [6]: 0.27 nM
Relative affinity (Binding potency) vs JI-38 [6]: 16.1 fold, JI-38 = 1
Molecule: [NMeY]ADAIFTQSYR[Orn]VL[Abu]QLSAR[Orn]LLQDI[Nle]D[Agmatine] (also called P20356) [[N-Me-Tyr^1, Gln^8, Orn^12, Abu^15, Orn^21, Nle^27, Asp^28, Agm^29]hGH-RH(1-29)]
